Measured values taken from IntAct's records for PubMed 15848184.

B1: Protein EAP1 (Saccharomyces cerevisiae), P36041 (parent)
chain: MELNDPSIISSSQFSGELSDSDTAAATHKSQQAISNLFQKLAKKGREEKPIGSVESSTDSSNISVATSGNNKESNKKKNKKTAMLNFSSLTDPITNYKPMDLQYKTYAYSMNELYHLKPSLASASYEEDPLISELVRSLPKRKFWRLRMGPPDQKHANNHHFNGNNGGGSWKAGYKNGKNDERRMSRTKNMQGGKRRSQQDDEEKKIDQEMLEMDKNLQLGGDVGHSIADFEDWKAKMKELELKKLSKSKGISNSTAIAPRESASHETPTDLRPVIPRGPSSITDFLNLKRQDKKEESSQQTPGIPVGQPSLSKTSIEQVNELETNSDLGKSSSSRFSSFFNKSATSLPSLDNNNQVPSSNVSVVNNDGNSTPHQSGSRLMSFFKESRSSTPNAESQLLSASDKDNGKMQTLPQFQQQPQQMQPMAFTQHPPNNNAFFNGLLNKGKSETSTPPPPPPGLIAHQGPQFPVMGVPPNFPQRMMPPPPGLVQFQKDSKDVNKKEDRQLRQNKNPNGTRNSKGKQEETATPDLPQQQYMPPPPPPGFFPMHPNFPNGPMPPLPQGFPIPPNGMLPVTGQQPQPPYPNMMLQGNFPPNFQQGFGSNSPMPIPSIINANGKNVTNQLPPGLNSKKNIK
partner: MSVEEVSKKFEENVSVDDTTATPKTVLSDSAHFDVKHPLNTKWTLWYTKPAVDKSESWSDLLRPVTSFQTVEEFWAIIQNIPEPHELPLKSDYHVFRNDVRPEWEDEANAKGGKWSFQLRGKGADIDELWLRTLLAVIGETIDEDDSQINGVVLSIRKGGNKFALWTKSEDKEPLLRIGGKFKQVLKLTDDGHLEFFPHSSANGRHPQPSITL

Variants of: B1
Details: with if4e_yeast CDC33, P07260

Row | effect of a mutation on the interaction | Variant
1 | disrupting interaction | Y109A
2 | disrupting interaction | Y109A;L114A
